Results on 41 sequences are retold here after the supplement of paper PMC12764529.

± gives the half width of the 95% confidence interval.

The data set is described as follows: folding stability dG unfold (combined trypsin and chymotrypsin); higher = more stable. How it is done:
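Folding stability of de novo designed mini-proteins (<80 aa, no Cys; designed by TrROS, TrMRF, ProteinMPNN and the joint model) was measured by cDNA display proteolysis with trypsin and chymotrypsin. Each protease was used at 11 concentrations in a threefold dilution series plus a no-protease condition. K50 was inferred by Bayesian fitting of sequencing counts, and dG unfold was derived against a sequence-predicted unfolded-state K50 (Tsuboyama et al. method). Sequences shown include variable-length N-terminal GS-type padding (SAGGSAGG...) inside a display construct carrying a PA tag. Rows were kept only if the AF2 dimer inter-PAE was >15, to exclude likely homo-oligomers.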
Take “SAGGSAGGSAMEEYEIRVPDKPITIHRSPDGNYSLQYFDNKKTETIPADDLDDLPPGDLFRSAGGSAGGSAG [r3_256_TrROS]”: the “folding stability dG unfold” value is less than -1 kcal/mol.

Consider “SAGGSAGGSAMWVRDIADELRKEGKPVKIEMRNPNGKEKEYTIKPGEPLPPGWDIEKIEYKSAGGSAGGSAG [r3_421_TrROS]”, for which the “folding stability dG unfold” value was less than -1 kcal/mol. For the sequence “SAGGSAGGSANKDDKKKEQRKQRVESKLPIYDPGNGKPWDIEVTGPVDDPEDAVDWLLDWFSAGGSAGGSAG [r3_271_TrROS]”, the “folding stability dG unfold” value was less than -1 kcal/mol. As to “SAGGSAGGSANPMPVRFQIEWKNPKDGKKQKIPITGTIPDGNGKKHSINELLKNLPGFKIKPSAGGSAGGSA [r18_267_TrROS]”, the “folding stability dG unfold” value is less than -1 kcal/mol. The value for “SAGGSAGGSANVEVHPNPDGHVMVKIEMRMYRYDPDGKPKGPVEIKRSIHVDSPEEAKEFFSAGGSAGGSAG [r3_232_TrROS]” was less than -1 kcal/mol; that for “SAGGSAGGSAPGQKFPIKEVYWNDGRLAIKVEDNGEEQIIPVGAKIEDDDDGEIKIKLLPPPSAGGSAGGSA [r18_468_TrROS]” was less than -1 kcal/mol; that for “SAGGSAGGSAPLVENPVPLYVPEEEAVPLAEEIRKKLTKGGLKKIVFEVVPPEEAGIPPDEPLSAGGSAGGS [r12_93_JUSTAS]” was less than -1 kcal/mol. For “SAGGSAGGSAPNQRREVPFYIYFPDDGKMFPFKQEKDPDPPKLKLKLPPEDFPPIEIMPGGSAGGSAGGSAG [r3_454_TrROS]”, the “folding stability dG unfold” value was less than -1 kcal/mol. With “SAGGSAGGSARVTVTPLPDDRVAVSVERTLYRRDADGNPLGPVRIQASVVVDSLEDAAELASAGGSAGGSAG [r3_232_TrMRF]”, the “folding stability dG unfold” value is less than -1 kcal/mol. The value for “SAGGSAGGSASPVQRILARLPSGEPFEAVYDPSTGTIDVLGEGKPSTIPAGTPVEVLEVRLESAGGSAGGSA [r18_144_JUSTAS]” was less than -1 kcal/mol; that for “SAGGSAGGSAVIVIPASVVEEKKEKIELKLEDETEYEVEVTTEKVGDEPIAVLKLIPKNIPSSAGGSAGGSA [r18_447_JUSTAS]” was less than -1 kcal/mol; that for “SAGGSAGGSAVVTLPDGRLLITEKVEEEVVFPDRDRTSKRVTTKTTLIDPATGTVLPASLLSAGGSAGGSAG [r3_394_JUSTAS]” was less than -1 kcal/mol.

With “SAGGSAGGSDINVRVIELPDEDGTPYLLLEADNPEGLSDEIAAAFPPDWDVRTDDDRVWVLRRSAGGSAGGS [r20_189_TrMRF]”, the “folding stability dG unfold” value was less than -1 kcal/mol. The result for “SAGGSAGGSEGKEVVVVPAVGVPPEAVRRALEPLGIRTRVVPVPPVRPFRAADPGRVYYTPVGSAGGSAGGS [r12_80_TrMRF]” reads less than -1 kcal/mol; that for “SAGGSAGGSEMKIDRIKIHDFDPDNGNYFVRIRNNGGPKHTFPVKNADELKEHLPGVKVEVIKSAGGSAGGS [r12_403_TrROS]”, less than -1 kcal/mol. The result for “SAGGSAGGSEPVPLKVKARFGDPGEEFEADIDIPKEALEGEALTPEQIKEALEALFPDVEIEGSAGGSAGGS [r20_221_TrMRF]” reads less than -1 kcal/mol; that for “SAGGSAGGSGAFTADNDGGKVYSARLVPLPPGDRPVAVGLDVPVDKPVLVAVLPDRTVVVPLGSAGGSAGGS [r12_994_TrMRF]”, less than -1 kcal/mol.

As for “SAGGSAGGSGFTVLEKDPSTGKVLVRLPPSLVEDVRRLPDVSPVAEEPDSVLLERTIPPGALASAGGSAGGS [r12_694_JUSTAS]”, the “folding stability dG unfold” value was less than -1 kcal/mol. For “SAGGSAGGSGMTVEERTSPDGTRVEVYLGPGSVVREESPEGVVTVRTLTDGRVEREEVVPVPASAGGSAGGS [r12_451_JUSTAS]”, the “folding stability dG unfold” value is less than -1 kcal/mol.

For the sequence “SAGGSAGGSGPRAEELVVVNAPPGYRIPTPDGVPVTVPADAPNVLVRVTYGPGSSSVTVELVQSAGGSAGGS [r12_338_JUSTAS]”, the “folding stability dG unfold” value is less than -1 kcal/mol.

Consider “SAGGSAGGSGSPSRPSPVLKFTFPKDPKPVTVPIPSGDPAAAAAAAAALEAAHPDTPVAVEAASAGGSAGGS [r12_601_JUSTAS]”, for which the “folding stability dG unfold” value is less than -1 kcal/mol.

Take “SAGGSAGGSGVKAILDALPPDYTVTVEEEPSGDSYTITVTHPDGASPTLRIDGGGRGELRKALSAGGSAGGS [r12_174_TrMRF]”: the “folding stability dG unfold” value was -0.845 ± 0.74 kcal/mol. The result for “SAGGSAGGSKDILANFPPGWKIEEEPNPNGMTRIDIKNPNGNEHRMEFPVNGKPIKFTIKPPESAGGSAGGS [r20_50_TrROS]” reads less than -1 kcal/mol; that for “SAGGSAGGSLSLSSNPLVTDPETGEVVYPAVADPVGIATAQWPDSTSYTPMPPNVTRVVRPGEASAGGSAGG [r6_627_JUSTAS]”, less than -1 kcal/mol; that for “SAGGSAGGSLTIPLPDGGTLTVVEEDEEEVLVEERKPNPGGSSPATFTRTIRRPPPVLPPKLVSAGGSAGGS [r12_959_JUSTAS]”, less than -1 kcal/mol. For the sequence “SAGGSAGGSMEITVTLPPDQTAEDAIAALPSEYKNVTVLETSTTFPPTTDETPTVTLTIKVTKSAGGSAGGS [r12_822_JUSTAS]”, the “folding stability dG unfold” value is less than -1 kcal/mol. In the case of “SAGGSAGGSMFMVKINNGKEIPIPPEDLPPGETVEELADNIPPGMRNIEIYNWDGEEQEIPIDSAGGSAGGS [r20_161_TrROS]”, the “folding stability dG unfold” value is less than -1 kcal/mol. For the sequence “SAGGSAGGSMTPEKIKKIRKRMEERGYQIPSIETNPGNGMPFININPPDPEMREKDPELRELISAGGSAGGS [r12_482_TrROS]”, the “folding stability dG unfold” value was less than -1 kcal/mol. The result for “SAGGSAGGSNWTIKVNIVEKPNGKKYIPITMRPPNGNTREGPMPADEIKDRFGMPAEDIAKAISAGGSAGGS [r20_235_TrROS]” reads less than -1 kcal/mol; that for “SAGGSAGGSPAFTVPREVKVGDKPVTVEVDGEGRVTIRTPEGGSESEPVGSPGPAPVAFRITLKSAGGSAGG [r6_241_JUSTAS]”, less than -1 kcal/mol; that for “SAGGSAGGSPIMVRVERRDKDGKKKPVPTIPIPINNDDPEEALEWANEIAKKAGARDVRVEIWSAGGSAGGS [r12_569_TrROS]”, less than -1 kcal/mol. The result for “SAGGSAGGSPVDEIIEEIKKKGYKANVKSVSVSPNSKGELEIELEINIEKPEPKGTEENIKKKSAGGSAGGS [r12_120_JUSTAS]” reads less than -1 kcal/mol; that for “SAGGSAGGSSPSDTVTAELRYVLPDGTPVERTLSLTDLPSSVTPEDTLTLPGPGLRARILAVTGSAGGSAGG [r6_561_JUSTAS]”, less than -1 kcal/mol. The result for “SAGGSAGGSTIMIPPGMPPEEAKAWARDIAREQGFPPGRDLNVEVEPQPFDGGPWYTIDIEWDSAGGSAGGS [r12_252_TrROS]” reads less than -1 kcal/mol. Consider “SAGGSAGGSTWEEVKKKAKEAGPELDFEPSPEGEKKFKIVAPKDKPEAVEALAKEYNVELEIESAGGSAGGS [r12_74_TrMRF]”, for which the “folding stability dG unfold” value was less than -1 kcal/mol. The value for “SAGGSAGGSVKDKNGTPYSVKEAKEKKLPNGTLVIELTLPESGKKITIPKKDIPKGISSEAKLKSAGGSAGG [r6_371_JUSTAS]” was less than -1 kcal/mol; that for “SAGGSAGGSVVIPESVISNMKEEEIRELIKKNPKPVLLVTENPEVRKKAEEIFKKEGYPLVVGSAGGSAGGS [r12_97_TrMRF]” was less than -1 kcal/mol. The result for “SAGGSAGGSVVPPEEEETVEKKETLTDPVTGKEYLSRRRVTYRPSKPEKVAEEEEIIPPDEPLSAGGSAGGS [r12_868_JUSTAS]” reads less than -1 kcal/mol. The result for “SAGGSAGGSVYYDESEDGVFVRVEGDGAPRVFPVADPEEARYRRIPTPDGRPVRVELRPSEEGSAGGSAGGS [r12_730_TrMRF]” reads less than -1 kcal/mol. Turning to “SAGGSAGGVEVEADPEYEVEVFEDPETGAVVAIVKGPDEVERALRFIPETGEPVELPLEEFEPLSAGGSAGG [r6_304_TrMRF]”, the “folding stability dG unfold” value is less than -1 kcal/mol. The value for “SAGGSAGSSSVSTVTPVGDYVVVTVNAPEGSVVTITDPATGTTETRAAPAGATFTVPPNASVSVTNSAGGSA [r15_418_JUSTAS]” was less than -1 kcal/mol.
